Our source for the protein production values is a protein production outcome set (Wang et al. 2014).

The data set in a line: label from the status in PepcDB records.
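Note: failed if final PepcDB status was selected cloned or expressed and not failed if soluble or beyond.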

“MDTDFRVTGRNAAALFALTIHRGDGMVLLGMDWKNGRPPIDFVGFAIQYREPGTDFFKNVRNRIGFPGQPVPADGIRTTEAPIQKFRWVHFPFNADLPGKFLYRVTPKFMDAAGGLASGEAQEAELALMRETIPGKLNVAFTRGFVSSQAFVRNFAPDAPTIITLVPPVGDEGLDFVPTHADAERALAWMGFEARAETLDLLDRAQAAGAEVRVIAYDLNLPEVVTRLEALGPKLKIIIDDSARTDGHGRPDSPETKAAERLIASAGAANVKRQHMANLQHQKSIAVRGGGISTVLYGSTNLSWRGLYVQSNNSLAVHSEKAIDDYFTAFESYFTAKRAADFRSSASSAGWIDLGLDGVDAKVAFSPHSDANGRLDEIGADIDTAQSSVLFSLAFLGQMTRGAIGPALGRALERPEVHVMGIADAEVRAGNLGLNVLTPDNRRRVVRAAALTGNVPPPFLTEPSGLAGVDGNQRGTRMHHKFVVLDFDKPTARVYLGSYNFSNPADDENGENLVVVRDRTVATSYMIEALRMYDHYVFRVASEASDGPARPLELKRPPQPGGTPWFERDWTDPIRARDRELFARAE”: the protein production entry is reported as “failed”.
Regarding “MDTDWSNLAVRLERLLERFERIIDRHDPVLPRDPAFFDGAIAFRWRRSGEQGTFEPVTHPHLPDPADLVGIDLVREDLIRNTAQFMDGYPANNVLLWGERGTGKSTCVKGMLRLFADRGLRLVEVQRDDLMSLPALIAALRSVPRRFILFCDDLSFGEGEGGYRELKALLEGSIEAKPTNILFYATSNRRHLLPERMEDNLSSEIHPEEAVSEKLSLADRFGMALGFYPFSQDVYLSIVERYAEKFALPMEREALRKEAHLWAMYRGSRSGRSARQFIDDLAGRLGVRLNDRLEHHHHHH”, the protein production entry is on record as “failed”.
For “MDTEADLFYRQLPKVELHAHLNGSVSFETMEKLIKRKPHLNIEHSMTAIRRGQRRTLDECFQVFKVIHQLVDSEEDILMVAKSVIQEFAADGVKYLELRSTPREVTETGLSKQRYIETVLEAIRQCKQEGVDIDVRFLVAVDRRHGPEVAMQTVKLAEDFLLSSDGTVVGLDLSGDPTVGHGKDLLAALQKAKNCGLKLALHLSEVPSQIDETELLLNLPPDRIGHGTFLHPDVGGSDSLVDKVCKQNIPIEICLTSNVKGQTVPSYDKHHFKYWYNRGHPCVLCTDDKGVFCTDLSQEYQLAASTFGLTKEAVWILSQQAIGYTFAPEPIKQRLEKTWAELKQQILQ” the value was “failed”; for “MDTIQKRPRTRLSPEKRKEQLLDIAIEVFSQRGIGRGGHADIAEIAQVSVATVFNYFPTREDLVDDVLNKVENEFHQFINNSISLDLDVRSNLNTLLLNIIDSVQTGNKWIKVWFEWSTSTRDEVWPLFLSTHSNTNQVIKTMFEEGIERNEVCNDHTPENLTKMLHGICYSVFIQANRNSSSEEMEETANCFLNMLCIYK”, “failed”.
Consider “MDTLKVRDAQEVEDAVRAAIANEQPIEIVGHGSKRSIGQLMSTNAVLELSALNAVTAYEPNELIITVQAGAPMADVLSLIDSKNQQFAFEPMDTATLLGTTPGAGTVAGMISAGLAGPRRIKAGGARDHLLGANAVSGFGESFKAGGKVVKNVTGYDLCKLLAGSWGTLAVMTEVTLKVTPRPESERTLVLRGLADVVANKAMTAALGSPYDVTGAAHLPGSALRTTAGALAEIAQPDQSLTLLRLEGITSSASHRAQSLRAALKSFGDAELIEDDASAALWRAVRDVEPFAASGPRALWPVWRIVCPPAAGGAFGEQLSRESGGEVIYDWGGGLIWAALPPATDGHAKALRQRVEKIGGHATLIRGSDAVRAGIDIFHPQPAGLAALGSRVKRSFDPTNILNRGRMSRGSAT”, for which the protein production entry is reported as “failed”.
To “MDTNGVLYAANMTNALAKEIPESKWDIQLIPELGTLRKLFIHIVRVRDVYRDGLKTGSIKFPGRLASDEHRLLDELERSMEELVFEFKQTTFNSIKMGENYLSIMELLGTVIQHEGIHQGQYYVALKQSGINLPKQWVQDWHM” belongs “not failed”; to “MDTPPTVFSIIIPVYNRPDEVRELLESLLIQTNSDFEVIIVEDGSSVCCDKEVDRVRELLRIQYVRVPNGGPAAARNIGARMAVGEYLLILDSDVVLPSGYIAAVKKRIEQMQADAFGGPDAAAEGFSPIQKAINYAMTSFFTTGGIRGGRRVRLDKFYPRSFNFGCKLSVYRQLGGFSEEMRFGEDIDFSLRLFKAGYNVCLFPEAFVFHKRRIDFKKFFRQVYNSGIARIHLQRRHPGSMKPVHILPALFTLGSVILAVGQFFCPWSLLPLLLLALLFLLDAWHTNRSLRIAILAVPASFVQLWGYGSGFLVACWRCYVLGHQEFRAFDKTFYN”, “failed”; to “MDTRFCSSLLIKNLNTFPASNKEIMNVTVSEAERNAGDERPDLQACAEAYAIVNSAFTKAVTFFKQAYYSKIVNIEKKVSMAVDICKTDFNVLGYQINPLIEKNRQTKILLSMEQIVSHMVSS”, “failed”.
To “MDTTCLVLTWMGSRVPIETIEEDGEFDWEAAVKEIDLACLKTTNAHPPITENLTKPPAKRQSTLDKFIGRTEPKPENHQVVSECGGNDNDNSLLVEIDPEAAKTWIYRGLLRLLTF” belongs “failed”.
Turning to “MDTTFGLDLARVETLFKRELRRFDELHPRSAQAYRENRRHWLYGAPLHWMQQWPGNCPLLVKEAQGARVTDIDGQQYVDFALGDSGAMFGHAQPAVADAIARQARRGSTLMLPTEDSLWVGAELARRFGLPYWQVTTSATDANRFVLRLCRMLSGRDKVVVFNCNYHGSVDESQVEFDAAGRMVPRAGVHPNGVRHATTTRLVEFNDLDALEAALAHGDVAAVLTEPFMTNVGMVPPAEGFHAGLRELTRRHDVALIIDETHTISCGPAGYSGAHGLEPDFFVLGKCIAGGIPSAVWGCSQAQAERIWAVLPHFRPGQAINHFGFGGTLAGNALQLAAMRATFAEVMTEDAYRHMFQLAAQLEAGVRATLEELRLPWHVTRIGARVEYLFMTHAPRNGGEAHHARNGLIEACLHLYLLNRGVLLTPFHNMALTCPATRAEDVELHDRLLRDCLGELLERPS”, the protein production result is “failed”.
In the case of “MDTVWMEIWTTVRNEFADIPDVAEATRIVLRLGMAVALGGLLGYERERSGKAAGLRTHMLVALGAALFVLVPLQGGMEVGDLSRVLQGVIAGIGFLGAGAIIKLGNEGEIRGLTTSAGIWLTAAIGVAAGMGREATALASTLIALFVLAALRHLEKRIAARDDKRVVAQPPP”, the protein production result was “failed”.
For the sequence “MDVFSEILNGIGRLLLQPALYVGIILVIIAGFNRVKWERKSFSISIYSPWLELKNFFGVSLLFGLVLSIITTLIGFSVMIEWIAIFNAVACFLLIVGMFRLSSTAFTIGITSLIFYFCYYFDVNLSPFTNLEFTYDAIFIDNFMISMTFLLAILLFVEAFLIQYTSAKNPSPSLRKSKRGKLVGSFQLRKLWFVPLVVFIPGDVFTKIFEWWPVFTIGSESYSLIILPLFIGFQQQVQAQLPEEASKKIAVQVTTLATIIAVAGLIGIVMPVLTLFAFMFAVIGRFWISYRHYRSEQLLPKKFGPQPDGLVVLGARESTPSTRLNLKAGEKITEVNGQKVHNREELYEALNLNRAFCKLKVIDNAGEPRFEQTALYENESFELGLLLVEPR”, the protein production result is listed as “failed”.
For “MDVGESNERVKDDSALQASPRSPLSSIDLAIDGAMNASIEQLYHNVCEMESSDDQSPSRASFISYGAESRIDLELRHLVGDVGEEGESKKEIILEKKEESNGEGSLSQKKPLSNGKKVAKTSPNNPKMPGSRISSRKSPDLGKVSVDEESPELGVVLLKQARELVSSGENLNKALDLALRAVKVFEKCGEGEKQLGLNLVMSLHILAAIYAGLGRYNDAVPVLERSIEIPMIEDGEDHALAKFAGCMQLGDMYGLMGQVENSIMLYTAGLEIQRQVLGESDARVGETCRYLAEAHVQAMQFEEASRLCQMALDIHKENGAAATASIEEAADRKLMGLICDAKGDYEVALEHYVLASMAMSSQNHREDVAAVDCSIGDAYMSLARFDEAIFAYQKALAVFKQGKGETHSSVALVYVRLADLYNKIGKTRDSKSYCENALKIYLKPTPGTPMEEVATGFIEISAIYQSMNELDQALKLLRRALKIYANAPGQQNTIAGIEAQMGVVTYMMGNYSESYDIFKSAISKFRNSGEKKTALFGIALNQMGLACVQRYAINEAADLFEEAKTILEKECGPYHPDTLAVYSNLAGTYDAMGRLDDAIEILEYVVGTREEKLGTANPEVEDEKQRLAALLKEAGRGRSKRNRALLTLLDNNPEIANGQRPVY” the value was “failed”; for “MDVGVVRPQRTEAGWDGGVAPRAGPTRRREACTAYVQRVAGGSGLPEGSSGSEPGPGRSRERPGDAAGGSGNAGCCACPVVSETGGDWLTDSTNRAFSVPGDFQGRRQAEGKTQKVRVQSTGKVPPFPVMKLQVLVLLMSWFGVLSWVQAEFFTSIGHMTDLIYAEKDLVQSLKEYILAEEAKLSKIKSWASKMEALTSKSAADPEGYLAHPVNAYKLVKRLNTDWPALGDLVLQDAAAGFVANLSVQRQFFPTDEDESGAARALMRLQDTYKLDPDMISRGELPGTKYQAMLSVDDCFGMGRSAYNEGDYYHTVLWMEQVLKQLDAGEEATVTKSLVLDYLSYAVFQLGDLHRAVELTRRLLSLDPSHERAGGNLRYFERLLEEERGKSLSNQTDAGLASQENLYERPVDYLPERDVYESLCRGEGIKMTPRRQKRLFCRYHHGNRVPQLLIAPFKEEDEWDSPHIVRYYDVMSDEEIERIKEIAKPKLARATVRDPKTGVLTVASYRVSKSSWLEEDDDPVVARVNRRMQHITGLTVKTAELLQVANYGMGGQYEPHFDFSRSDERDAFKRLGTGNRVATFLNYMSDVEAGGATVFPDLGAAIWPKKGTAVFWYNLLRSGEGDYRTRHAACPVLVGCKWVSNKWFHERGQEFLRPCGTTEVD”, “failed”; for “MDVMRSVLGMVVLLTIAFLLSVNKKKISLRTVGAALVLQVVIGGIMLWLPPGRWVAEKVAFGVHKVMAYSDAGSAFIFGSLVGPKMDTLFDGAGFIFGFRVLPAIIFVTALVSILYYIGVMGILIRILGGIFQKALNISKIESFVAVTTIFLGQNEIPAIVKPFIDRLNRNELFTAICSGMASIAGSTMIGYAALGVPVEYLLAASLMAIPGGILFARLLSPATESSQVSFNNLSFTETPPKSIIEAAATGAMTGLKIAAGVATVVMAFVAIIALINGIIGGVGGWFGFEHASLESILGYLLAPLAWVMGVDWSDANLAGSLIGQKLAINEFVAYLNFSPYLQTAGTLDAKTVAIISFALCGFANFGSIGVVVGAFSAVAPHRAPEIAQLGLRALAAATLSNLMSATIAGFFIGLA”, “failed”.
Consider “MDVTGKSLKRILLSLAVFCILITGPGIACAEEATTQEKEILFSDYFKSMMDMAQDKYKGEITEKQMLEGALKGIFSTMDSYTVYYTVEESQDFFTDINGSYTGIGVVMSEVDGKIVIDKVYPSSPAEEAGIKKGDVIAQVDGKSVENLSLEEVAGLIKGPSGTKVVIGVLRNGTDGVIELEVTRRQIIINPVTHKIEGDIGYIKLESFNSNASKAMEEALKQMDKNNIKKIILDLRDNPGGDVGQAVSIARKFVKKGLITKLDFKSESQKDEEYYSYLEELKYKLVVLVNENSASASEILAGAIQDTGSGILVGTTTFGKGKVQNLYPILTPEAVEKYRKETGETFVNGYDLLEKHGIYPSDEEIIGWVKITTGEYYTPNGRMIDGVGLEPDVYVENEPEGKYKILEGVEKLRKVTKPSLNAQSEDVLNAEKILSALGYDVDTPDNLMDEKTVKAVAEFQRDCGLYSYGVLDFATQQALNDKLDELLLVKNRDKQYEKAVELLEN”, for which the protein production entry is listed as “failed”.
Consider “MDVTWTVKYITEFVGTALLIIMGNGAVANVELKGTKAHAQSWMIIGWGYGLGVMLPAVAFGNITSQINPAFTLGLAASGLFPWAHVAQYIIAQVLGAMFGQLLIVMVYRPYYLKTQNPNAILGTFSTIDNVDDNDKKTRLGATINGFLNEFVGSFVLFFGAVAATNIFFGSQSITWMTNYLKGQGADVSSSDIMNQIWVQASGASASKMVAHLFLGFLVMGLVVALGGPTGPGLNPARDFGPRLVHSLLPKSVLGEAKGSSKWWYAWVPVLAPILASLAAVALFKMIYL”, for which the protein production result is “failed”.
